{"source": "patent US20050249698A1", "about": "(priority 2002, published 2005)", "molecules": {"B1": {"name": "rhG-CSF: commercially available recombinant human granulocyte colony stimulating factor (protein, UniProt P09919 31-207, looked up)", "Granulocyte …": "TPLGPASSLPQSFLLKCLEQVRKIQGDGAALQEKLVSECATYKLCHPEELVLLGHSLGIPWAPLSSCPSQALQLAGCLSQLHSGLFLYQGLLQALEGISPELGPTLDTLQLDVADFATTIWQQMEELGMAPALQPTQGAMPAFASAFQRRAGGVLVASHLQSFLEVSYRVLRHLAQP"}}, "format_in_all_cases": "in vivo, Balb/c mice", "key": {"normal mice [1]": {"test_system": "normal mice", "assay": "Test 1: peripheral blood cell counts, sOGP for 5 days then sOGP and rhG-CSF co-administered", "experimental": "(§1) The clean grade of the Balb/c mice, weighed from 16 to 18 g, were used and randomly grouped, 7-10 mice per group. The tests were carried out in two batches.\n(§2) The mice were divided into 4 groups.\n(§3) The mice in each group were sacrificed on the 14th day.\n(§4) The detection indexes were as follows: • (1) The counts of the peripheral blood leucocytes (WBC), the peripheral blood lymphocytes (LY), red blood cells (RBCs) and the change of platelet were determined for each group on the first day (no drug was administered), the 5th, 8th, 10th, 12th and 14th day. • (2) The counts of marrow karyotes (BMNC) of the mice in each group and the change of the classification of the marrow were determined on the 14th day. • (3) The sections of the sternum of the mice in each group were determined on the 14th day. • (4) The weights of the spleens of the mice in each group and the sections of the […] were determined on the 14th day."}, "normal mice [2]": {"test_system": "normal mice", "assay": "Test 1: marrow karyote count and classification of the thighbone", "conditions": "14th day, x±SE", "experimental": "as §1, §2, §3, §4"}, "normal mice [3]": {"test_system": "normal mice", "assay": "Test 1: pathologic observation of breastbone (sternum) sections", "conditions": "14th day, Test 1, FIG. 3", "experimental": "as §1, §2, §3, §4"}, "normal mice [4]": {"test_system": "normal mice", "assay": "Test 1: spleen weight", "experimental": "as §1, §2, §3, §4"}, "normal mice [5]": {"test_system": "normal mice", "assay": "Test 1: pathologic observation of spleen sections", "conditions": "14th day, Test 1, FIG. 4", "experimental": "as §1, §2, §3, §4"}, "normal mice [6]": {"test_system": "normal mice", "assay": "Test 2: marrow karyote count of the thighbone", "conditions": "11th day, Test 2, simultaneous administration; x±SE", "experimental": "as §1, §2\n(§5) The mice in each group were sacrificed on the eleventh day.\n(§6) The detection indexes were as follows: • (1) The counts of the peripheral blood leucocytes of the mice in each group were determined on the first day (no drug was administered), the 3rd, 5th, 7th, 9th and 11th day. • (2) The counts of marrow karyotes (BMNC) of the mice in each group were determined on the 11th day. • (3) The weights of the spleens of the mice in each group were determined on the 11th day."}, "normal mice [7]": {"test_system": "normal mice", "assay": "Test 2: spleen weight", "experimental": "as §1, §2, §5, §6"}, "[8]": {"conditions": "Test 1, sOGP 5 days then co-administration, x±SE"}}, "data": [{"molecule": "B1", "values": [{"measurement": "% leucocyte granulocyte", "setting": "normal mice [1]; [8]", "value": "70.39 ± 1.54", "unit": "%"}, {"measurement": "% leucocyte lymphocyte", "setting": "normal mice [1]; [8]", "value": "29.61 ± 1.54", "unit": "%"}, {"measurement": "leucocyte", "setting": "normal mice [1]; Test 1, x±SE", "value": "17.59 ± 1.59 ×10^6/ml"}, {"measurement": "platelet", "setting": "normal mice [1]; Test 1, x±SE", "value": "505.43 ± 35.34 ×10^6/ml"}, {"measurement": "red blood cell", "setting": "normal mice [1]; Test 1, x±SE", "value": "6.68 ± 0.10 ×10^9/ml"}, {"measurement": "karyote/thighbone", "setting": "normal mice [2]", "value": "1.90 ± 0.13 ×10^7"}, {"measurement": "marrow: early erythroblast", "setting": "normal mice [2]; thighbone marrow", "value": "2.50 ± 0.33", "unit": "%"}, {"measurement": "marrow: intermediate erythroblast", "setting": "normal mice [2]; thighbone marrow", "value": "12.13 ± 1.92", "unit": "%"}, {"measurement": "marrow: late erythroblast", "setting": "normal mice [2]; thighbone marrow", "value": "16.00 ± 2.11", "unit": "%"}, {"measurement": "marrow: lymphocyte, plasma cell", "setting": "normal mice [2]; thighbone marrow", "value": "19.38 ± 2.00", "unit": "%"}, {"measurement": "marrow: matured granulocyte", "setting": "normal mice [2]; thighbone marrow", "value": "30.83 ± 2.77", "unit": "%"}, {"measurement": "marrow: myelocyte, metamyelocyte", "setting": "normal mice [2]; thighbone marrow", "value": "11.00 ± 1.00", "unit": "%"}, {"measurement": "marrow: primitive granulocyte", "setting": "normal mice [2]; thighbone marrow", "value": "0.63 ± 0.36", "unit": "%"}, {"measurement": "marrow: promyelocyte", "setting": "normal mice [2]; thighbone marrow", "value": "1.88 ± 0.44", "unit": "%"}, {"measurement": "pathologic observation of bone marrow cells in breastbone section", "setting": "normal mice [3]", "value": "the proliferation of the bone marrow cells and the ratios among the three cell lines were normal"}, {"measurement": "spleen weight", "setting": "normal mice [4]; 14th day, Test 1, x±SE", "value": "0.252 ± 0.007", "unit": "g"}, {"measurement": "spleen weight compared with the other two groups (control, sOGP)", "setting": "normal mice [4]; Test 1, Table 3", "value": "significantly higher"}, {"measurement": "spleen section: matured granulocytes as share of the granulocytes", "setting": "normal mice [5]", "value": "about 60%"}, {"measurement": "spleen section: megakaryocyte cell line", "setting": "normal mice [5]", "value": "moderately proliferated"}, {"measurement": "spleen section: red matter", "setting": "normal mice [5]", "value": "proliferated moderately"}, {"measurement": "spleen section: white matter", "setting": "normal mice [5]", "value": "lightly to moderately shrunk"}, {"measurement": "karyote number/thighbone", "setting": "normal mice [6]", "value": "1.75 ± 0.12 ×10^7"}, {"measurement": "spleen weight", "setting": "normal mice [7]; 11th day, Test 2, simultaneous administration, x±SE", "value": "0.244 ± 0.017", "unit": "g"}, {"measurement": "spleen weight compared with the other two groups (control, sOGP)", "setting": "normal mice [7]; Test 2, Table 5", "value": "significantly higher"}]}]}
